This is an account of results in patent publication US20250289904A1 (UMC UTRECHT HOLDING B V, published 2025).

The target in assay [1] is plasmin-cleaved von Willebrand factor (cVWF) (human) (UniProt P04275). In words: capture ELISA, cVWF spiked in citrated normal pooled plasma, detection with biotinylated VHH B9. On the technique in general: An ELISA detects its analyte on a solid surface through an enzyme-linked reagent.
Assay [2] has the same target. In words: capture ELISA, cVWF in buffer, detection with biotinylated VHH B9.
Assay [3] shares this target. The experiment in a line: capture ELISA, VHH coated on plate, concentration series of VWF and cVWF in buffer, detection with biotinylated VHH B9; reference: intact VWF.
Assay [4] deals with T1, intact von Willebrand factor (VWF) (human, UniProt P04275 764-2813).
T1 construct: also called uncleaved VWF; purified VWF
T1 sequence (P04275 764-2813 limits assumed): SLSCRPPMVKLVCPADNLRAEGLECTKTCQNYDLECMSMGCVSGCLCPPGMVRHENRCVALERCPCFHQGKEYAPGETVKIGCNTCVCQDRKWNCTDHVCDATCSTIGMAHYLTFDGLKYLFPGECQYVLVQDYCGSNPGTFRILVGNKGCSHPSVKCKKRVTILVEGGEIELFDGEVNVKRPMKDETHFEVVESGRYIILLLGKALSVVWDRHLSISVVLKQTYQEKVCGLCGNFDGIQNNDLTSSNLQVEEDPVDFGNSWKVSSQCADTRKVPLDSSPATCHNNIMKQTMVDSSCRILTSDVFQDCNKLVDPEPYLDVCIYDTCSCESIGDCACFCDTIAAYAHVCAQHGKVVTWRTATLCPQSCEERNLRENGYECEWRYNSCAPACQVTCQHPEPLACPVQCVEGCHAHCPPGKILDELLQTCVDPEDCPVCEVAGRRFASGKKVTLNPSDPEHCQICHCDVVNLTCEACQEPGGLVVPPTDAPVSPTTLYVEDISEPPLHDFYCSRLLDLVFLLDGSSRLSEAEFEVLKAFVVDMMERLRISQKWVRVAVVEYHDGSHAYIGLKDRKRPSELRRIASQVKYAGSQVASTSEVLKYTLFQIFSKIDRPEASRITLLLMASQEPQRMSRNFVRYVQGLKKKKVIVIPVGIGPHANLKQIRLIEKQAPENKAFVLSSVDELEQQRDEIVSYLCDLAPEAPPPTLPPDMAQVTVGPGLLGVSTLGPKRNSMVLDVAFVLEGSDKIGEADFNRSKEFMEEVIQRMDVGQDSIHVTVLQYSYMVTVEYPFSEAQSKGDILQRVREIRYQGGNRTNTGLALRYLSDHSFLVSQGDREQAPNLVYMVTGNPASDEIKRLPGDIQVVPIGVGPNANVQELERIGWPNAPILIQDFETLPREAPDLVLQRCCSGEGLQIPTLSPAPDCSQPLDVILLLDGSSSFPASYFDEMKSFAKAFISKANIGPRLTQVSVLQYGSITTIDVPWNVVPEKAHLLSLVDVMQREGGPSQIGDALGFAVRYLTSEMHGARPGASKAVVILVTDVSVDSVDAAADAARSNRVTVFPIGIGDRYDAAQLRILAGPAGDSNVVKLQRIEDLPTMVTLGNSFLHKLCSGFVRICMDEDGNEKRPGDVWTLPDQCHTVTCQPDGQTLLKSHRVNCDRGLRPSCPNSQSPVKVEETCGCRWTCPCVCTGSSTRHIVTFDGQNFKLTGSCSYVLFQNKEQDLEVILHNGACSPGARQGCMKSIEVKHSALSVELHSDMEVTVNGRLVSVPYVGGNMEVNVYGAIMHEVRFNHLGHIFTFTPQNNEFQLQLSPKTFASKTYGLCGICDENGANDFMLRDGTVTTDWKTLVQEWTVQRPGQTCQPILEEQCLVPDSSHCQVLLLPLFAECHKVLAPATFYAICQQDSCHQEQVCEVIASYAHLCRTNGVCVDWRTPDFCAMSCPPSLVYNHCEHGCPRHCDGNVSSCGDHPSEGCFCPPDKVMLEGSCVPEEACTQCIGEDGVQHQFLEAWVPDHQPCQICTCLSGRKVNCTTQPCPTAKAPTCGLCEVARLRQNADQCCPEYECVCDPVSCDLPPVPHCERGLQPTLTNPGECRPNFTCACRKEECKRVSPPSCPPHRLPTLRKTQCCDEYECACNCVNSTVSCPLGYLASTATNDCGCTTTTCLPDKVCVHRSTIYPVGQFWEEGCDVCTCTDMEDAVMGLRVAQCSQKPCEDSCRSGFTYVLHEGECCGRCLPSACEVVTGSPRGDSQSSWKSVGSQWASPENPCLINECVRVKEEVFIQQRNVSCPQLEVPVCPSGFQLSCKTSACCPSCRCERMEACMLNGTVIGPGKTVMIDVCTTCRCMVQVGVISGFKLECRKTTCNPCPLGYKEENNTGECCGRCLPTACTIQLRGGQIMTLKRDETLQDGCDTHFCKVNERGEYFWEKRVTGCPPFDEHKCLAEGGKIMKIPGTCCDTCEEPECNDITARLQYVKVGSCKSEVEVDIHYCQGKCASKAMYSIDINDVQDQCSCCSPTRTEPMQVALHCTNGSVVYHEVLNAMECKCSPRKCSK
In words: capture ELISA, VHH coated on plate, concentration series of VWF in buffer, detection with biotinylated VHH B9 and streptavidin-poly HRP.

B1: cVWF capture VHH #1 (F5) (VHH, not shown: small tags and cut ends)
VHH: EVQLVESGGGLVQAGGSLRLSCAASGQTDSTYTGGWFRQAPGKEREFVATFSWNSGRTHFADSVKGRFTISRDNAKSTVFLQMNSLKPEDTAVYYCAAHRTSLTDYSFRYWGQGTHVTVSS
B1: the sensitivity of the cVWF ELISA in assay [1] and in assay [2] was 8 ng/mL in each case. Moreover, the fold discrimination between VWF and cVWF in assay [3] was 144 fold.

B2: negative control VHH-R2 (VHH)
VHH: QVQLQESGGGLVQAGGSLRLSCAASGRATSGHGHYGMGWFRQVPGKEREFVAAIRWSGKETWYKDSVKGRFTISRDNAKTTVYLQMNSLKPEDTAVYYCAARPVRVDDISLPVGFDYWGQGTQVTVSS
notes: Production and tags of this control are not described
B2: in assay [4], the binding result is listed as “no binding”.

B3: cVWF capture VHH #2 (G5) (VHH, not shown: small tags and cut ends)
VHH: EVQLVESGGGLVQAGGSLRLSCAVSGRTVSNSMAWFRQAPEKEREFVAAISWNSGRTDYADSVKGRFTISRDNAKNTVDLQMNSLKAEDTAVYYCAVHRVRIEPKEYLYWGQGTQVTVSS
For the molecule B3, the sensitivity of the cVWF ELISA in assay [1] and in assay [2] was 4 ng/mL throughout.
